Assay results taken from patent publication US20240199759A1 (CYTOVIA THERAPEUTICS, published 2024).

Tests used:
[1] = molecular target: T1, human NKp46 (form in the assay not stated) (human, UniProt O76036 22-255, limits assumed); test: BIAcore
[2] = molecular target: T1, human NKp46 (form in the assay not …); test: BIAcore; SE(KD) 2.20E-10
[3] = molecular target: T2, Human NKp46 antigen (Acro Biosystems) expressed on HEK293 cells or CHO cells (human, UniProt O76036 22-255); test: ELISA on coated human NKp46 antigen, normalized binding curve
T2 construct: Bought
T2 sequence (O76036 22-255 limits assumed): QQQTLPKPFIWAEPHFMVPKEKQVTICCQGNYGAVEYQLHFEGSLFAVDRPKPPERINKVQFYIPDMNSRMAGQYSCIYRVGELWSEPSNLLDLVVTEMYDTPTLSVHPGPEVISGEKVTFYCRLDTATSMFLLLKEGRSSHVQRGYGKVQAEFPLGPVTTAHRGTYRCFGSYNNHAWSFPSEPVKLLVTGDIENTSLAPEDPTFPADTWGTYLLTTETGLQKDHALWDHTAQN

[4] = molecular target: human GPC3 (form in the assay not stated) (human, UniProt P51654 25-559, limits assumed); test: method not stated
human GPC3 (form in the assay not stated), sequence (P51654 25-559 limits assumed): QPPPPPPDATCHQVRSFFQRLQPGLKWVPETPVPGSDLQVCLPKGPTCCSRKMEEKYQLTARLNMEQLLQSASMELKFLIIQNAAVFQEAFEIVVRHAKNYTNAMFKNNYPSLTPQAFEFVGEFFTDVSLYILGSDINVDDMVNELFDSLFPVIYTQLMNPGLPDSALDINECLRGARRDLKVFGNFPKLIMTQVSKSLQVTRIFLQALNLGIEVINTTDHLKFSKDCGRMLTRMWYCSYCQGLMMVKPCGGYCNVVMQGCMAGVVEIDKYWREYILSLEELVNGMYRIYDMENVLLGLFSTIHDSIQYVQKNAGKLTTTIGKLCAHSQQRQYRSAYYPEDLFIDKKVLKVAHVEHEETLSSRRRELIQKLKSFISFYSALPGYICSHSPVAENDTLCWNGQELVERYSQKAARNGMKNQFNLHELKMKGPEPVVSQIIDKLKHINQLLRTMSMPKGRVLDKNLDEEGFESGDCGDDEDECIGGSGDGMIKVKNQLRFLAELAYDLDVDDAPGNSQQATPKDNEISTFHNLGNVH

T1 sequence (O76036 22-255 limits assumed): as the sequence (O76036 22-255 limits assumed) above

B1: mouse anti-NKp46 monoclonal antibody 09 (antibody, V domains shown)
VH: EVQLQQSGPELVKPGTSVKISCKTSGYTFTEYSMHWVKQSHGKSLEWFGGISPNSGGTSYNQKFKGKATLTVDKSSSTAYMELRSLTSEDSAVYYCARRDFHSSFDYWGQGTTLTVSS
VL: DIVMTQSPATLSVTPGDRVSLSCRASQSISDYLHWFQQKSHESPRLLIKYASQSISGIPSRFSGSGSGSDFTLSINSVEPEDVGVYYCQNGHSFPLTFGPGTKLELK
notes: Mouse hybridoma antibody raised in NKp46-deficient mice against NKp46-Ig; also called 09 antibody; mAb 09
Question: Which kon [1] does the source give for B1 here?
Answer: 6.22e+07 M⁻¹ s⁻¹

B2: mouse anti-NKp46 monoclonal antibody 12 (antibody, V domains shown)
VH: EVQLQQSGPELVKPGTSVKISCKTSGYTFTEYSMHWVKQSHGKSLEWFGGISPNSGGTSYNQKFKGKATLTVDKSSSTAYMELRSLTSEDSAVYYCARRDFHSSFDYWGQGTTLTVSS
VL: DIVLTQSPATLSVTPGNSVSLSCRASQSISDYLHWFQQKSHESPRLLIKYASQSISGIPSRFSGSGSGSDFTLSINSVEPEDVGVYYCQNGHSFPLTFGPGTKLELK
notes: Mouse hybridoma antibody; also called 12 antibody; mAb 12
Question: With B2 as the binder, how does the Kd [2] read?
Answer: 1.67 nM

B3: humanized 09 anti-NKp46 antibody (antibody, IgG4, V domains shown)
VH: EVQLQQSGAEVKKPGSSVKVSCKTSGYTFTEYSMHWVRQAPGKSLEWFGGISPNSGGTSYNQKFKGRATLTVDKSSSTAYMELSSLRSEDTAVYYCARRDFHSSFDYWGQGTTVTVSS
VL: DIVMTQSPATLSLSPGERATLSCRASQSISDYLHWFQQKPHESPRLLIKYASQSISGIPARFSGSGSGSDFTLTISSLEPEDFAVYYCQNGHSFPLTFGPGTKVDIK
notes: Humanized with an IgG4 framework; ELISA used MAbs with humanized variable and mutated IgG4, kappa light chain detected; also called 09 antibody humanized
Question: With B3 as the binder, how does the Kd [3] read?
Answer: ~0.027 nM

B4: humanized 12 anti-NKp46 antibody (antibody, IgG4, V domains shown)
VH: EVQLQQSGAEVKKPGSSVKVSCKTSGYTFTEYSMHWVRQAPGKSLEWFGGISPNSGGTSYNQKFKGRATLTVDKSSSTAYMELSSLRSEDTAVYYCARRDFHSSFDYWGQGTTVTVSS
VL: DIVLTQSPATLSLSPGERATLSCRASQSISDYLHWFQQKPHESPRLLIKYASQSISGIPARFSGSGSGSDFTLTISSLEPEDFAVYYCQNGHSFPLTFGPGTKVDIK
notes: Humanized with an IgG4 framework; ELISA used MAbs with humanized variable and mutated IgG4, kappa light chain detected; also called 12 antibody humanized
Question: With B4 as the binder, how does the Kd [3] read?
Answer: ~0.025 nM

B5: NKE1 (GPC3/NKp46/wt_IgG1), FLEX-NK tetravalent NKp46 engager directed against GPC3 (bispecific antibody)
heavy: not shown
light 1: DIVMTQSPATLSLSPGERATLSCRASQSISDYLHWFQQKPHESPRLLIKYASQSISGIPARFSGSGSGSDFTLTISSLEPEDFAVYYCQNGHSFPLTFGPGTKVDIKRTVAAPAVFIFPPSDEQLKSGTASVVCLLKNFYPREAKVQWKVDNALQSGNSQESVTEQDSKDSTYSLSSTLTLSKADYEKHKVYACEVTHQGLSSPVTKSFNRGEC
light 2: not shown
notes: Tetravalent; also called wildtype NKE1; copies: 2 + 2 + 2
Question: Which “fold higher affinity compared to human NKp46” value [4] does the source give for B5 here?
Answer: ~50 fold
